The test concerns the target protein A/G. Nature of the test: SPR; real-time, microfluidic cell on the nanostructured gold film, white light and CCD detector, 0.1 Hz; protein A/G (0.5 mg/mL, 1 h, 30 uL/min) immobilised, flushed with PBS; IgG 10 ug/mL injected at 30 uL/min; 10 mM PBS.

The text below walks through data of paper PMC4829874.

Take IgG (antibody): the resonance peak shift at 10 ug/mL IgG was 2 nm.
